# In PMC9355956:
# System: CC(C)C[C@H](NC(=O)[C@H](CCC(N)=O)NC(=O)[C@H](CCCCN)NC(=O)[C@H](CCCNC(=N)N)NC(=O)[C@@H]1CCCN1C(=O)[C@H](C)NC(=O)[C@H](CCCCN)NC(=O)CNC(=O)CNC(=O)[C@@H](NC(=O)[C@H](CO)NC(=O)[C@H](CCCCN)NC(=O)[C@H](CCCNC(=N)N)NC(=O)[C@H](C)NC(=O)[C@@H](NC(=O)[C@H](CCC(N)=O)NC(=O)[C@H](CCCCN(C)C)NC(=O)[C@@H](NC(=O)[C@H](CCCNC(=N)N)NC(=O)[C@H](C)N)[C@@H](C)O)[C@@H](C)O)[C@@H](C)O)C(=O)N[C@@H](C)C(=O)O
# Assay: purified protein, by the assay type
# Conditions: other: substrate, 20 nM LSD1
# Protocol: The activity of hSMOX, hPAOX, and LSD1 enzymes was measured using the HyPerBlu chemiluminescent reagent for the direct detection of the hydrogen peroxide product. […] Hydrogen peroxide product formation was monitored 30 min after the addition of HyPerBlu on a PHERAstar microplate reader (BMG LABTECH, Cary, NC). All compounds were spotted into the assay plates using Echo acoustic dispensing technology (BeckmanCoulter, Indianapolis, IN). Unless otherwise stated, all reactions were carried out in 384-well assay format.
# 2 µL/well of 2x substrate was dispensed into the assay plate followed by 2 µL/well of 2x enzyme to initiate the reactions. […] The data were fit to the 4-parameter IC50 equation in GraphPad Prism.
# Briefly, 2.5 µL/well of the twofold substrate solutions prepared in buffer was added to the assay wells followed by 2.5 µL/well of the 2x enzyme to initiate the reactions.
# The initial velocity data were fit to the Michaelis-Menten equation in GraphPad Prism. Y=Vmax*X/(Km+X) where Vmax is the maximal velocity, X is the substrate concentration and Km is the Michaelis-Menten constant. The kcat value was determined by dividing Vmax value by the enzyme concentration.
substance,measurement,value
LSD1 (Homo sapiens),Km,3.8 ± 0.35 µM
